Source: US20200131263A1 (JIANGSU HENGRUI MEDICINE, published 2020)

B1: mouse monoclonal antibody 8A11 (antibody, V domains shown)
VH: EVKLVESGGGLVKPGGSLKLSCAASGFTFSSYAMSWVRQTPEKRLEWVAYISSGGSTYYPDSVKGRFTISRENARNILYLQMSSLRSEDTAMYYCAREGYGTYGDYWGQGTTLTVSS
VL: DIVMSQSPSSLAVSVGEKVTMSCKSSQSLLYSTNQKNYLAWYQQKPGQSPKLLIYWASTRESGVPDRFTGSGSGTDFTLTISSVKAEDLAVYYCQQYYSYLRTFGGGTKLEIK
notes: Mouse antibody from a hybridoma
B2: mouse monoclonal antibody 7D9 (antibody, V domains shown)
VH: DVQLQESGPGLVKPSQSLSLTCTVTGYSITSDYAWNWIRQFPGNKLEWLGYISYSGSTYYNPSLKSRISLTRDTSKNQFFLQLNSVTSEDTATYYCARWDYRYDGRGFDYWGQGTTLTVSS
VL: DIQMTQSPSSLSASLGERVSLTCRASQDIGSGLNWLQQEPDGTIKRLIYATSSLDSGVPKRFSGSRSGSDYSLTISSLESEDFVDYNCLQYTSTPWTFGGGTKLEIK
notes: as for B1
B3: mouse monoclonal antibody 16G9 (antibody, V domains shown)
VH: QVQLQQSGAELAKPGASVKMSCKASGYTFTTYWIHWIKQRPGQGLEWIGYINPSTGYTDYNQNFKDKATLTADQYSSTAYMQLSSLTFEDSAVYYCANYYGSTPYYWGRGTTLTVSS
VL: QIVLTQSPAIMSASPGEKVTMTCSASSSVTYVHWYQQKSGASPERWIFDASKLASGVPARFSGSGSGTSYSLTISSMETEDAATYYCQQWSSNPLTFGAGTKLELK
notes: as for B1
B4: reference antibody BMAB (Merck's MK-4166 antibody) (antibody, V domains shown)
VH: QVQLQQSGAEVKKPGSSVRVSCKASGGTFNNNAINWVRQAPGQGLEWMGGIIPMFGTAKYSQNFQGRVAITADESTGTASMELSSLRSEDTAVYYCARSRDLLLFPHHALSPWGRGTMVTVSS
VL: SSELTQDPAVSVALGQTVRVTCQGDSLRSYYASWYQQKPGQAPVLVIYGKNNRPSGIPDRFSGSSSGNTASLTITGAQAEDEADYYCSSRDSSGNHWVFGGGTELTVLG
B5: humanized anti-GITR antibody hu8A11 (antibody, human IgG1, kappa, V domains shown)
VH: EVQLVESGGGLVQPGGSLRLSCAASGFTFSSYAMSWVRQAPGKGLEWVAYISSGGSTYYPDSVKGRFTISRDNAKNSLYLQMNSLRAEDTAVYYCAREGYGTYGDYWGQGTTLTVSS
VL: DIVMTQSPSSLAVSVGERVTISCKSSQSLLYSTNQKNYLAWYQQKPGQSPKLLIYWASTRESGVPDRFSGSGSGTDFTLTISSLQAEDVAVYYCQQYYSYLRTFGGGTKLEIKR
notes: also called h8A11
B6: humanized anti-GITR antibody hu18F10 (antibody, human IgG1, kappa, V domains shown)
VH: QVQLVQSGAEVVKPGASVKVSCKASGYTFTGYDLHWVRQAPGQGLEWIGVISTYYGDANYNQKFQGRVTMTVDTSSSTAYMELSRLRSEDTAVYYCTRLAESYFFDYWGQGTTLTVSS
VL: EIVLTQSPATLSASPGERVTLTCRASSSVSYLHWYQQKPGQAPKPWIYDTSNLASGFPARFSGDGSGTDYTLTISSLEAEDAAVYYCHQRSSYPFTFGSGTKLEIKR
B7: mouse monoclonal antibody 18F10 (antibody, V domains shown)
VH: QVQLQQSGAELVRPGVSVKISCKCSGYTFTGYDLHWVKQSHAKSLDWIGVISTYYGDANYNQKFKGKATMTVDKSSSTAYMELARLTSEDSAIYYCTRLAESYFFDYWGQGTTLTVSS
VL: QILLTQSPAIMSASPGEKVTMTCRASSSVSYIHWYQQKPGSSPKPWIYDTSDLASGFPARFSGTGSGTSYSLIISSMEAEDAATYYCHQRSSYPFTFGSGTKLEIK
notes: as for B1

Tests used:
[1] = biological target: T1, human GITR with mFc tag (huGITR-mFc) (human); experiment: ELISA, blocking of GITRL-His binding to coated GITR-Fc
T1 chain: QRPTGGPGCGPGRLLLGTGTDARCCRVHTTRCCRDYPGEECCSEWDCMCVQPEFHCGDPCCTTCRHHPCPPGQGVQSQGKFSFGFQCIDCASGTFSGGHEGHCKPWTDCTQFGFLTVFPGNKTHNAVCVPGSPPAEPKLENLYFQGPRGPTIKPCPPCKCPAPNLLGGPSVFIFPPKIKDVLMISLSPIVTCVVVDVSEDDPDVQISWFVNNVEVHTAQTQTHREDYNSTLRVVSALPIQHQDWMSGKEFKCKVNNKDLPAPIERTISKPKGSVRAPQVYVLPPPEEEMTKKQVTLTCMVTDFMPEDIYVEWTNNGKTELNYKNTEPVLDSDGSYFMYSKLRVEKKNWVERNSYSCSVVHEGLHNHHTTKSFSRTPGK
Method: huGITR-mFc was diluted to 2 μg/ml with CBS buffer pH 9.5, added to the 96-well microplate at a volume of 50 μl/well, and incubated overnight at 4° C. The supernatant was discarded prior to adding 300 μl/well of 1% BSA blocking buffer diluted with PBS, and the plate was incubated for blocking for 2.5h at 37° C. in an incubator. After blocking, the blocking buffer was discarded, and the plate was washed three times with PBST buffer (pH 7.4 PBS containing 0.05% tween-20) prior to adding antibodies for pre-incubation, wherein the antibodies were diluted into gradient concentrations with sample diluent. 0.15 μg/ml of GITRL-His protein in a volume of 50 μl/well was added, mixed and incubated at 37° C. in an incubator for 30 minutes. The reaction buffer was then discarded, the plate was washed with PBST three times, and 50 μL/well of Peroxidase AffiniPure Goat Anti-Human secondary antibody diluted with sample diluent at a ratio of 1:4000 was added, then the place was incubated at 37° C. for 30 minutes. After washing the plate with PBST three times, 50 μl/well of TMB chromogenic substrate was added and the plate was incubated at room temperature for 5 minutes prior to adding 50 μl of 2M H₂SO₄ to terminate the reaction. The absorption value at 450 nm was read by a MD plus 384 microplate reader. The EC50 values of GITR antibodies binding to GITR were obtained by analyzing the data with SoftMax Pro6.2.1, as shown in Table 1.

[2] = biological target: T2, mouse GITR (mouse, UniProt O35714 20-153, limits assumed); experiment: ELISA, mouse GITR coated at 1 ug/ml
T2 sequence (looked up): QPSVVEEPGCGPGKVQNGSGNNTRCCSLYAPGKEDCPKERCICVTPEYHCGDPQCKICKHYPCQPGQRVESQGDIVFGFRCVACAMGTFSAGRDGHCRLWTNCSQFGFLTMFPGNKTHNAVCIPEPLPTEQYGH
Method: (§1) The GITR proteins from different species (mouse/cyno GITR) were diluted to 1 μg/ml with PBS buffer pH 9.5, and 50 μl/well was added to a 96-well microplate, which was incubated overnight (16-18 hours) at 4° C. The buffer in the plate was discarded prior to adding 300 μl/well of 1% BSA blocking buffer diluted with PBS, and the plate was incubated for blocking for 2.5h at 37° C. in an incubator. After blocking, the blocking buffer was discarded, and the plate was washed three times with PBST buffer (pH 7.4 PBS containing 0.05% tween-20). 50 μl/well antibodies to be tested were added to the plate, wherein the antibodies were diluted to different concentrations with sample diluent (pH7.4 PBS), and the plate was incubated at 37° C. in an incubator for 30 minutes. After incubation, the reaction buffer in the microplate was discarded prior to washing the plate with PBST three times, and 50 μL/well of Peroxidase AffiniPure Goat Anti-Human secondary antibody (JacksonImmunoResearch, 109-035-088) which was diluted with sample diluent was added, and the plate was incubated at 37° C. for 1 hour. […] The absorption value at 450 nm was read by a MD plus 384 microplate reader.

[3] = biological target: cynomolgus GITR (cyno-GITR) (cynomolgus); experiment: ELISA, cyno GITR coated at 1 ug/ml
Method: as §1

[4] = biological target: T1, human GITR with mFc tag (huGITR-mFc); experiment: ELISA, huGITR-mFc coated at 1 ug/ml
Method: The huGITR-mFc was diluted to 1 μg/ml with CBS buffer pH 9.5, added to the 96-well microplate at 50 μl/well, and incubated overnight at 4° C. The supernatant was discarded prior to 300 μl/well of 1% BSA blocking buffer diluted with PBS to the wells, and the plate was incubated for 2.5h at 37° C. in an incubator for blocking. After blocking, the blocking buffer was discarded, and the plate was washed three times with PBST buffer (pH 7.4 PBS containing 0.05% tween-20). 50 μl/well of the antibodies to be tested were added, with the antibodies being diluted to different concentrations with sample diluent, and the plate was incubated at 37° C. in an incubator for 30 minutes. The plate was then washed with PBST three times, and 50 μL/well of Peroxidase AffiniPure Goat Anti-Human secondary antibody (Jackson immune research, 115-035-088) diluted with sample diluent was added, followed by incubating at 37° C. for 30 minutes. After washing the plate with PBST three times, 50 μl/well of TMB chromogenic substrate was added and the plate was incubated at room temperature for 5 minutes prior to adding 50 μl/well of 1M […] to terminate the reaction. The absorption value at 450 nm was read by a MD plus 384 microplate reader. The data were analyzed with SoftMax Pro6.2.1 to obtain binding EC50 values of the anti-GITR antibodies to GITR, as shown in Table 1.

[5] = biological target: T3, human h-GITR-his antigen (Sino Biological, Cat. #13643-H08H) (human, UniProt Q9Y5U5 26-161); experiment: SPR (Biacore T200), antibody captured on Protein A chip, h-GITR-his as analyte, 1:1 Langmuir fit
T3 construct: Bought protein; also called GITR antigen; not shown: His tag
T3 sequence (looked up): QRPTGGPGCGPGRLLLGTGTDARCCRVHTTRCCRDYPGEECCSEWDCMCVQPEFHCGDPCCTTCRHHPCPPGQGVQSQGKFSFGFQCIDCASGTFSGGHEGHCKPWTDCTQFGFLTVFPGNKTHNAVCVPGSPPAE
Method: The affinities of humanized anti-GITR antibodies to be tested and human GITR were measured by Biacore, GE instruments.
A Protein A biosensor chip (Cat. 29-1275-56, GE) for a Biacore Instrument (Biacore T200, GE) was used to affinity-capture a certain amount of antibodies to be tested, and then a series of concentration gradients of GITR antigen (human h-GITR-his antigen was selected from Sino Biological Company (Cat. #13643-H08H)) were flowed through the surface of the chip. Real-time reaction signals were detected by a Biacore Instrument (Biacore T200, GE), thus obtaining the binding and dissociation curves. The biochip was rinsed and regenerated with 10 mM glycine pH 1.5 after each dissociation cycle, and the buffer was PBST, pH7.4. The experimental data were fitted with (1:1) Langmuir model using Biacore T200 Evaluation 2.0, GE software, and the affinity values were obtained, as shown in Table 2.

| Binder | IC50 [1] [nM] | binding result [2] | EC50 [3] [nM] | EC50 [4] [nM] | Kd [5] [nM] | koff [5] [s⁻¹] | kon [5] [M⁻¹ s⁻¹] |
| --- | --- | --- | --- | --- | --- | --- | --- |
| B1 | 7.57 | no binding | 5.21 | 0.077 |  |  |  |
| B2 | 3.89 |  |  | 0.055 |  |  |  |
| B3 | 10.3 |  |  | 0.075 |  |  |  |
| B4 | 1.39 |  |  | 0.074 | 0.185 |  |  |
| B5 |  |  |  |  | 0.62 | 0.000104 | 168000 |
| B6 |  |  |  |  | 0.33 | 0.000204 | 613000 |
| B7 | 6.04 | no binding | 0.744 | 0.103 |  |  |  |
